Measured values as given in the RNAGym collection of RNA variant scans (doi:10.1073/pnas.2313332121).

B1: TPR t1 (parent)
chain: GACCAAUCUGCCCUCAGAGCUCGAGAACAUCUUCGGAUGCAGAGGAGGCAGGCUUCGGUGGCGCGAUAGCGCCAACGUCCUCAACCUCCAAUGCAUCCCACCACAUGAUGAUGCCUGAAGAGCCUUGGUUUUUUG

Variants of: B1
Experiment: polymerase ribozyme fitness, log enrichment relative to wild type (log ratio); higher = more active; in vitro selection for triplet polymerase activity
Outline: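 Mutant libraries of both subunits of a heterodimeric triplet polymerase ribozyme were PCR-built, transcribed, and selected once in triplicate, with frozen incubation at −7 °C and capture of gel-excised extended constructs on streptavidin beads before RT-PCR. Illumina sequencing of input and output libraries was filtered to genotypes with ≥10 input reads and ≥1 read per output. Fitness is the logarithm of genotype enrichment over wild-type enrichment, using inverse-variance-weighted replicate averages. The logarithm is base 2.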

**Q.** For C85G A119G, which “polymerase ribozyme fitness (log ratio)” value is on record?
**A.** The value was -0.0195.

**Q.** Which “polymerase ribozyme fitness (log ratio)” value does the source give for C85G A90U G127C U133A here?
**A.** The value was -4.53.

**Q.** For C86U C94U C115A, which “polymerase ribozyme fitness (log ratio)” value is on record?
**A.** The value was -0.874.

**Q.** Which “polymerase ribozyme fitness (log ratio)” value does the source give for A84U C101U G122A U132A here?
**A.** The value was -1.15.

**Q.** For C86A C123U C124G, which “polymerase ribozyme fitness (log ratio)” value is on record?
**A.** The value was 0.744.

**Q.** With C85G G113C as the variant, how does the “polymerase ribozyme fitness (log ratio)” value read?
**A.** Its value is -3.51.

**Q.** For C85G G113A, which “polymerase ribozyme fitness (log ratio)” value is on record?
**A.** Its value is -2.15.

**Q.** With A83C C88U as the variant, how does the “polymerase ribozyme fitness (log ratio)” value read?
**A.** The value was -0.561.

**Q.** Which “polymerase ribozyme fitness (log ratio)” value does the source give for C85G U130A G135U here?
**A.** Its value is -3.18.

**Q.** With A83C G113U as the variant, how does the “polymerase ribozyme fitness (log ratio)” value read?
**A.** The value was -3.09.

**Q.** For U87A C124U, which “polymerase ribozyme fitness (log ratio)” value is on record?
**A.** Its value is 1.04.

**Q.** For C85A U116C, which “polymerase ribozyme fitness (log ratio)” value is on record?
**A.** The value was -2.08.

**Q.** Which “polymerase ribozyme fitness (log ratio)” value does the source give for C85U U96C here?
**A.** The value was -0.852.

**Q.** For C82G C99U, which “polymerase ribozyme fitness (log ratio)” value is on record?
**A.** Its value is -3.61.

**Q.** For A83C U112G G113C G120U U130C, which “polymerase ribozyme fitness (log ratio)” value is on record?
**A.** The value was -7.33.

**Q.** With C82A U92A as the variant, how does the “polymerase ribozyme fitness (log ratio)” value read?
**A.** The value was -3.43.

**Q.** With C86A C114U A119U as the variant, how does the “polymerase ribozyme fitness (log ratio)” value read?
**A.** The value was -3.57.

**Q.** With A83G C89A as the variant, how does the “polymerase ribozyme fitness (log ratio)” value read?
**A.** Its value is -3.89.

**Q.** With C82U U87C G113A as the variant, how does the “polymerase ribozyme fitness (log ratio)” value read?
**A.** The value was -1.19.

**Q.** With C86A G120U as the variant, how does the “polymerase ribozyme fitness (log ratio)” value read?
**A.** Its value is -0.761.

**Q.** Which “polymerase ribozyme fitness (log ratio)” value does the source give for A83G C89A U106G here?
**A.** Its value is -4.3.

**Q.** For C82G G128A, which “polymerase ribozyme fitness (log ratio)” value is on record?
**A.** Its value is -2.22.

**Q.** With A83U G107A as the variant, how does the “polymerase ribozyme fitness (log ratio)” value read?
**A.** Its value is -5.83.

**Q.** With C85G C97U as the variant, how does the “polymerase ribozyme fitness (log ratio)” value read?
**A.** Its value is -2.99.

**Q.** For A83U G120A U125A, which “polymerase ribozyme fitness (log ratio)” value is on record?
**A.** Its value is 0.929.

**Q.** Which “polymerase ribozyme fitness (log ratio)” value does the source give for U87A G122A here?
**A.** Its value is -0.168.

**Q.** With C85A A100C as the variant, how does the “polymerase ribozyme fitness (log ratio)” value read?
**A.** Its value is -2.71.

**Q.** Which “polymerase ribozyme fitness (log ratio)” value does the source give for C82U G117U here?
**A.** The value was -2.7.

**Q.** With U87A C115U as the variant, how does the “polymerase ribozyme fitness (log ratio)” value read?
**A.** Its value is -0.739.

**Q.** For U87A C115A, which “polymerase ribozyme fitness (log ratio)” value is on record?
**A.** Its value is 0.108.

**Q.** Which “polymerase ribozyme fitness (log ratio)” value does the source give for U87A C89U here?
**A.** Its value is 0.835.

**Q.** With A83G A90G as the variant, how does the “polymerase ribozyme fitness (log ratio)” value read?
**A.** Its value is -0.465.

**Q.** Which “polymerase ribozyme fitness (log ratio)” value does the source give for C86G C89A C114A here?
**A.** The value was -4.58.

**Q.** With U81A A91G U92G as the variant, how does the “polymerase ribozyme fitness (log ratio)” value read?
**A.** The value was -4.76.

**Q.** With C86A U92A G93C G120A as the variant, how does the “polymerase ribozyme fitness (log ratio)” value read?
**A.** The value was -4.42.

**Q.** Which “polymerase ribozyme fitness (log ratio)” value does the source give for A83C A121G here?
**A.** Its value is 1.63.

**Q.** Which “polymerase ribozyme fitness (log ratio)” value does the source give for C86A A90G here?
**A.** Its value is 0.132.

**Q.** With C86A A90U as the variant, how does the “polymerase ribozyme fitness (log ratio)” value read?
**A.** The value was -1.19.

**Q.** For C86U A103C, which “polymerase ribozyme fitness (log ratio)” value is on record?
**A.** The value was -5.52.

**Q.** Which “polymerase ribozyme fitness (log ratio)” value does the source give for A84C C85G G93A C101U here?
**A.** Its value is -2.22.

**Q.** Which “polymerase ribozyme fitness (log ratio)” value does the source give for C82A G110U C123U here?
**A.** Its value is -2.47.

**Q.** With C82U C89U G113U G120A G128A as the variant, how does the “polymerase ribozyme fitness (log ratio)” value read?
**A.** Its value is -5.47.

**Q.** Which “polymerase ribozyme fitness (log ratio)” value does the source give for U87A A105U U116C here?
**A.** Its value is -3.54.

**Q.** Which “polymerase ribozyme fitness (log ratio)” value does the source give for U87A U112A here?
**A.** The value was 1.76.

**Q.** With A83U G120U U130C as the variant, how does the “polymerase ribozyme fitness (log ratio)” value read?
**A.** Its value is -0.376.

**Q.** Which “polymerase ribozyme fitness (log ratio)” value does the source give for C86A A90C G135U here?
**A.** The value was -2.98.

**Q.** For C85G G110A U126C, which “polymerase ribozyme fitness (log ratio)” value is on record?
**A.** Its value is -2.99.

**Q.** For U81C G127C, which “polymerase ribozyme fitness (log ratio)” value is on record?
**A.** Its value is -1.22.

**Q.** With C82G G93C U129G as the variant, how does the “polymerase ribozyme fitness (log ratio)” value read?
**A.** The value was -2.84.

**Q.** With C85G G117C as the variant, how does the “polymerase ribozyme fitness (log ratio)” value read?
**A.** The value was -5.23.

**Q.** With C86U G110C as the variant, how does the “polymerase ribozyme fitness (log ratio)” value read?
**A.** The value was -3.72.

**Q.** With C82U C89A as the variant, how does the “polymerase ribozyme fitness (log ratio)” value read?
**A.** The value was -1.21.

**Q.** Which “polymerase ribozyme fitness (log ratio)” value does the source give for C82A U87A here?
**A.** Its value is -0.237.

**Q.** For A84G A118G, which “polymerase ribozyme fitness (log ratio)” value is on record?
**A.** Its value is -0.615.

**Q.** For A84G U129G, which “polymerase ribozyme fitness (log ratio)” value is on record?
**A.** Its value is -1.32.

**Q.** Which “polymerase ribozyme fitness (log ratio)” value does the source give for C82G C98A A118U here?
**A.** The value was -5.57.

**Q.** For C85A C99U, which “polymerase ribozyme fitness (log ratio)” value is on record?
**A.** The value was -4.7.

**Q.** For C86U C114U, which “polymerase ribozyme fitness (log ratio)” value is on record?
**A.** Its value is -1.7.

**Q.** For U81A C82A C98U, which “polymerase ribozyme fitness (log ratio)” value is on record?
**A.** Its value is -3.39.

**Q.** For C85A C89A U106A C114A, which “polymerase ribozyme fitness (log ratio)” value is on record?
**A.** Its value is -5.22.

**Q.** With C82U U96A C101A G127A as the variant, how does the “polymerase ribozyme fitness (log ratio)” value read?
**A.** The value was -4.42.

**Q.** For C86A A91U, which “polymerase ribozyme fitness (log ratio)” value is on record?
**A.** The value was -2.01.

**Q.** For U87A C88U, which “polymerase ribozyme fitness (log ratio)” value is on record?
**A.** Its value is -1.46.

**Q.** Which “polymerase ribozyme fitness (log ratio)” value does the source give for A83G C86A G113A here?
**A.** The value was -2.01.

**Q.** With A84U U109G as the variant, how does the “polymerase ribozyme fitness (log ratio)” value read?
**A.** Its value is -4.27.

**Q.** Which “polymerase ribozyme fitness (log ratio)” value does the source give for A84U U133G here?
**A.** The value was -0.42.

**Q.** For C86U A100C G110U U129C, which “polymerase ribozyme fitness (log ratio)” value is on record?
**A.** Its value is -4.69.

**Q.** For C86G C88A, which “polymerase ribozyme fitness (log ratio)” value is on record?
**A.** Its value is -1.96.

**Q.** With C85G G117C G128U as the variant, how does the “polymerase ribozyme fitness (log ratio)” value read?
**A.** Its value is -7.06.

**Q.** With C82U U96G G122A as the variant, how does the “polymerase ribozyme fitness (log ratio)” value read?
**A.** Its value is -1.25.

**Q.** Which “polymerase ribozyme fitness (log ratio)” value does the source give for U87A C89U G128A here?
**A.** The value was -2.15.

**Q.** With C85A C101G U109G G117C as the variant, how does the “polymerase ribozyme fitness (log ratio)” value read?
**A.** The value was -7.01.

**Q.** Which “polymerase ribozyme fitness (log ratio)” value does the source give for A84U U112G here?
**A.** Its value is 0.742.

**Q.** For C85U C123G, which “polymerase ribozyme fitness (log ratio)” value is on record?
**A.** The value was 0.896.

**Q.** For A84U C97A, which “polymerase ribozyme fitness (log ratio)” value is on record?
**A.** Its value is -5.72.

**Q.** With C86A C115A G128A U133A as the variant, how does the “polymerase ribozyme fitness (log ratio)” value read?
**A.** Its value is -4.43.

**Q.** With C85U U109A as the variant, how does the “polymerase ribozyme fitness (log ratio)” value read?
**A.** Its value is -6.03.

**Q.** With C85U A90U U109G C124A as the variant, how does the “polymerase ribozyme fitness (log ratio)” value read?
**A.** Its value is -6.07.

**Q.** For A84C C124G, which “polymerase ribozyme fitness (log ratio)” value is on record?
**A.** The value was 1.9.

**Q.** For A84C C124A, which “polymerase ribozyme fitness (log ratio)” value is on record?
**A.** Its value is 1.76.

**Q.** Which “polymerase ribozyme fitness (log ratio)” value does the source give for C85G U132A here?
**A.** The value was -1.6.

**Q.** With U87C A103U as the variant, how does the “polymerase ribozyme fitness (log ratio)” value read?
**A.** The value was -3.8.

**Q.** With U81A G117U as the variant, how does the “polymerase ribozyme fitness (log ratio)” value read?
**A.** Its value is -3.99.
